# T1: recombinant human OX40-his protein (human, UniProt P43489 29-214)
# T1 construct: Secretion driven by the native signal peptide of human TNFRSF4; also called recombinant histidine tagged human OX40 receptor extracellular domain; recombinant monovalent human OX40 receptor extracellular domain
# T1 sequence: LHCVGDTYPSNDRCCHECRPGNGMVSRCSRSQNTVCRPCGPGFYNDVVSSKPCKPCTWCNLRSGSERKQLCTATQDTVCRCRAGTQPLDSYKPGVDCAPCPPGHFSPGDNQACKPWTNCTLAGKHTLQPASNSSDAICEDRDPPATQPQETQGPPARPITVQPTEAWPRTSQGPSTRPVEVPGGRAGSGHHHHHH
# Experiments:
# [1] = target: T2, recombinant human OX40-Fc protein (human, UniProt P43489 29-214); assay: blocking ELISA on coated human OX40-Fc; blocked ligand: biotinylated recombinant human OX40L, streptavidin-HRP detection
# T2 construct: also called human TNFRSF4 extracellular domain-Fc fusion protein; HHHH; not shown: Fc region of a human IgG1, EU positions 223-451 as printed
# Method: In order to determine if the generated anti-OX40 antibodies can block the binding of OX40L to the OX40 receptor, a blocking ELISA was developed. Ninety-six well-microtiter plates (Costar, USA; distributor VWR AG, Nyon, Switzerland) were coated with 100 μl of recombinant human OX40-Fc (see Example 1) at 2 μg/ml in PBS. Plates were incubated overnight at 4° C. and were then blocked with PBS 2% BSA at RT for one hour. The blocking solution was removed and the hybridoma supernatants or purified antibodies were added to the plate. Five minutes later, 50 μl of biotinylated-recombinant human OX40L at 0.04 mg/ml was added to each well. Plates were incubated at RT for 60 minutes, then washed nine times with PBS 0.01% Tween-20 and HRP-streptavidin (Sigma-Aldrich Chemie GmbH, Buchs, Switzerland) was added at a dilution of 1:2000. Plates were incubated for 30 minutes at RT, washed 9 times with PBS 0.01% Tween-20 and the TMB substrate (Bio-rad Laboratories AG, Reinach, Switzerland) was added to the plates and the reaction stopped after 6 minutes by adding H₂SO₄. Absorbance was then read at 450 nm by a microplate reader (Biotek, USA; distributor: WITTEC AG, Littau, Switzerland).
# [2] = target: T1, recombinant human OX40-his protein; assay: SPR, antibody captured on protein A, OX40-his as analyte, duplicates; lower of the two duplicate measurements
# Method: (§1) Kinetic binding affinity constants (KD) were measured on protein-A captured antibody using recombinant histidine tagged human OX40 receptor extracellular domain as described in Example 1 as analyte. Measurements were conducted on a BIAcore 2000 (GE Healthcare—BIAcore, Uppsala, Sweden) at room temperature, and analyzed with the BiaEvaluation software (BIAcore; v4.1).
# (§2) 10 μl of this diluted stock were subsequently injected on the flow-path 2 of the protein-A CMS chip (30 μl/min) to reach 200-250 RUs. Following this capture step, the recombinant histidine tagged human OX40 receptor extracellular domain was injected at different concentrations (50 nM to 0.4 μM) on the flow-path 1 and 2 (flow-path 1 being used as reference) at a 30 μl/min flow rate. After each binding event, surface was regenerated with glycine buffer pH 1.5 injected for 1 min (10 μl/min)
# Measurements were performed in duplicates with the captured chimeric 1D4 anti-human OX40 antibody immobilized onto the protein-A sensor chip and the recombinant histidine tagged human OX40 receptor extracellular domain as analyte.
# [3] = target: T1, recombinant human OX40-his protein; assay: SPR, antibody captured on protein A, OX40-his as analyte
# Method: as §1
# A CMS research grade sensor chip (GE Healthcare Europe GmbH, Glattbrugg, Switzerland; BR-1000-14) was activated by injecting 35 μl of a 1:1 N-hydroxysulfosuccinimide (NHS)/1-Ethyl-3-[3-dimethylaminopropyl]carbodiimide Hydrochloride (EDC) solution (v/v; 5 μl/min flow-rate; on flow paths 1 and 2). Protein-A (ref. P7837; Sigma-Aldrich Chemie GmbH, Buchs, Switzerland) was diluted to a final concentration of 50 μg/ml in acetate buffer pH 4.5 (GE, BR-1003-50; one pH unit below pI) and subsequently immobilized on the previously activated CMS sensor chip by injecting 35 μl on both flow path 1 and 2 (5 μl/min); this corresponded to approximately 1500 response units (RUs). The protein-A-CMS sensor chip was then deactivated by injecting 35 μl of ethanolamine solution (5 μl/min). Finally, two injections of 10 μl of glycine solution (GE, ref BR-1003-54; 10 mM; pH 1.5) were performed to release non-crosslinked protein-A molecules.
# as §2
binder,measurement,setting,value
"chimeric 1D4 antibody (antibody, human IgG1, kappa, V domains shown, Biotinylated for the staining of cynomolgus cells; also called 1D4 chimera; 1D4 chimeric antibody) VH: QVTLKESGPGILQPSQTLSLTCSFSGFSLSTSGMGVGWIRQPSGKGLEWLAHIWWDDDKYYNTALKSGLTISKDTSKNQVFLKIASVDTTDTATYYCARIDWDGFAYWGQGTLVTVSS VL: QIVLTQSPAILSASPGEKVTMTCRASSSVSYMHWYQQKPGSSPKPWIYATSNLASGVPARFSGSGSGTSYSLTINRVEAEDAATYYCQQWSSNPWTFGGGTKLEIKR",IC50 (read off the curve),[1],~0.3 µg/mL
same,Kd,[2],91 to 116 nM
same,Kd,[3],91 nM
same,koff,[3],0.00308 s⁻¹
same,kon,[3],34000 M⁻¹ s⁻¹

# — US20130183315A1 (GLENMARK PHARMACEUTICALS S A, published 2013)
